T1: CD19 (human, UniProt P15391 20-291)
T1 chain: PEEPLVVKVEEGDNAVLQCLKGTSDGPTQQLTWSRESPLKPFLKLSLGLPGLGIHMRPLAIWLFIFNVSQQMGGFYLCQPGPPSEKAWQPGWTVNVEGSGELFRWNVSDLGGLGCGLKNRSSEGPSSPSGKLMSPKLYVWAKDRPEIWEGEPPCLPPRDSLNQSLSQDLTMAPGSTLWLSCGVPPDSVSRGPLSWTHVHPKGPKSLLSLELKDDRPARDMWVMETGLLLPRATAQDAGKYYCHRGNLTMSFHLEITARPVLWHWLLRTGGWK

B1: Humanised CD22ALAb scFv (scFv)
scFv: EVQLVESGAEVKKPGSSVKVSCKASGYTFTNYWINWVRQAPGQGLEWIGNIYPSDSFTNYNQKFKDRATLTVDKSTSTAYLELRNLRSDDTAVYYCTRDTQERSWYFDVWGQGTLVTVSSDIVMTQSPATLSVSPGERATLSCRSSQSLVHSNGNTYLHWYQQKPGQAPRLLIYKVSNRFSGVPARFSGSGSGVEFTLTISSLQSEDFAVYYCSQSTHVPWTFGQGTRLEIK
B2: CD19ALAb (antibody)
chain: QVQLQQSGAELVRPGSSVKISCKASGYAFSSYWMNWVKQRPGQGLEWIGQIWPGDGDTNYNGKFKGKATLTADESSSTAYMQLSSLASEDSAVYFCARRETTTVGRYYYAMDYWGQGTTVTVSSDIQLTQSPASLAVSLGQRATISCKASQSVDYDGDSYLNWYQQIPGQPPKLLIYDASNLVSGIPPRFSGSGSGTDFTLNIHPVEKVDAATYHCQQSTEDPWTFGGGTKLEIK
B3: Murine CD19ALAb scFv (scFv)
scFv: B2 chain
B4: Murine CD22ALAb scFv (scFv)
scFv: QVQLQQPGAELVRPGASVKLSCKASGYTFTNYWINWVKQRPGQGLEWIGNIYPSDSFTNYNQKFKDKATLTVDKSSSTAYMQLSSPTSEDSAVYYCTRDTQERSWYFDVWGAGTTVTVSSDVVMTQTPLSLPVSLGDQASISCRSSQSLVHSNGNTYLHWYLQKPGQSPKLLIYKVSNRFSGVPDRFSGSGSGTDFTLKISRVEAEDLGLYFCSQSTHVPWTFGGGTKLEIK

Columns and labels:
CD22 = CD22 (human, UniProt P20273 20-687); experiment: Biacore SPR
CD19 [1] = target: T1, CD19; experiment: binding kinetics
CD19 [2] = target: T1, CD19; experiment: Biacore SPR

| Binder | Kd (CD22) [nM] | further results |
| --- | --- | --- |
| B1 | 32 |  |
| B2 |  | Kd (CD19 [1]): 1.1 nM |
| B3 |  | Kd (CD19 [2]): 1.85 nM |
| B4 | 38 |  |

— patent US20180371054A1 (published 2018)
